What was measured:
[1] = test system: HCT116 human colon carcinoma cells; assay: Tumor volume in nude mice, osmotic mini-pump infusion; format: in vivo; settings: E. coli-expressed Apo-2 ligand (aa 91-281/92-281) 10 mg/kg each day by intraperitoneal osmotic mini-pump; over 3 days; vehicle no change; FIG. 15
Protocol: In the experiment, the nude mice were injected subcutaneously with HCT116 human colon carcinoma cells (ATCC CCL 247) (1×10^6 cells) on each side of the animal. The tumors were then allowed to grow to reach approximately 1 cm diameter (approximately 10 days). On Day 0, the tumor volume was measured with calipers. Volume was calculated as π/6×ab^2, where a=length and b=width. Then osmotic mini-pumps (available from Alza Corp., Model 1003) were implanted intraperitoncally into each animal. The mini-pumps were loaded with either (1) control vehicle (20 mM Tris pH 7.5, 8% Trehalose. 0.01% Tween-20) or (2) Apo-2 ligand. Five animals in each group received either the control vehicle or Apo-2 ligand. The mini-pumps were calibrated to deliver each day 10 mg/kg Apo-2 ligand (10 mg/ml×2 μl/hour) or 2 μl/hour control vehicle.
On Day 3, the tumor volume was again measured, and the animals were sacrificed. […] There was no change in tumor volume in the vehicle group, but a marked reduction in tumor size occurred in mice infused with the Apo-2L. The treatment with the Apo-2L shrunk the tumors by about 50% over 3 days.

T lymphocytes = assay: Apoptosis by FACS in peripheral blood T cells; format: cell-based, human; settings: Apo-2 ligand 3 μg/ml, 3 days, mean ±SE
Protocol: (§1) Peripheral blood mononuclear cells (“PBMC&”) were isolated from the blood of human donors by Ficoll density gradient centrifugation using Lymphocyte Separation Medium (LSM®, Organon Teknika). An isolated population of T cells was prepared from the PBMC by removal of B cells through surface Ig binding to an anti-Ig column and removal of monocytes through Fc receptor binding to an Ig column (R & D Systems). An isolated population of B cells was prepared from the PBMC by complement-mediatedelimination of T cells reacted with the anti-CD3 antibody produced by the OKT3 myeloma (ATCC, CRL 8001) and of monocytes reacted with a monocyte-specific antibody produced by the 4F2C13 hybridoma (ATCC, HB 22). Additional monocyte removal was accomplished by adherence to plastic.
The freshly isolated peripheral blood B or T cells (1×10^6 cells/well) were cultured for 3 days in the presence of a media control or Apo-2 ligand (3 μg/ml, prepared as described in Example 3). For activation, B cells were treated simultaneously with lipopolysaccharide (“LPS”, 1 μg/ml), and T cells were treated with phorbol myristate acetate (“PMA”, 10 ng/ml) plus ionomycin (1 μg/ml) (Sigma). For interleukin-2 (“IL-2”) pretreatment, T cells were cultured for 3-5 days in the presence of IL-2 (50 U/ml) (Genzyme) before exposure to Apo-2 ligand. Apoptosis was determined using FACS analysis essentially as described above in Example 4. However, B cells were gated by anti-CD19/CD20 antibodies (Jackson Immunoresearch), and T cells were gated by anti-CD4/CD8 antibodies (Jackson lmmunoresearch). The results are shown in Table 2 below, representing means ±SE of independent experiments [B lymphocytes—9 experiments; T lymphocytes—8 experiments; T lymphocytes plus IL-2-5 experiments], in which 50,000 cells were analyzed per data point. Statistical analysis was performed using the student t-test. In Table 2, a=p<0.05 and b=p<0.02 relative respective control.

Jurkat cells = assay: Apoptosis by FACS (PI / FITC-annexin V); format: cell-based, human; settings: Apo-2 ligand 3 μg/ml, 24 hours, control 5.9
Protocol: The effects of the Apo-2 ligand on the 9D cells, as well as on Raji cells (human Burkitt's lymphoma B cell line, ATCC CCL 86) and Jurkat cells (human acute T cell leukemia cell line, ATCC TIB 152) were further analyzed by FACS. The FACS analysis was conducted, using established criteria for apoptotic cell death, namely, the relation of fluorescence staining of the cells with two markers: (a) propidium iodide (“PI”) dye, which stains apoptotic but not live cells, and (b) a fluorescent derivative of the protein, annexin V, which binds to the exposed phosphatidylserine found on the surface of apoptotic cells, but not on live cells [Darzynkiewicz et al., Methods in Cell Biol., 41:15-38 (1994); Fadok et al., J. Immunol., 148:2207-2216 (1992); Koopman et al., Blood, 84:1415-1420 (1994)].
The 9D cells (FIG. 2B), Raji cells (FIG. 2C), and Jurkat cells (FIG. 2D) were incubated (1×10^6 cells/well) for 24 hours with a media control (left panels), Apo-2 ligand (3 μg/ml, prepared as described in Example 3) (center panels), or anti-Apo-1 ligand antibody, CH11 (1 μg/ml) (right panels). The cells were then washed, stained with PI and with fluorescein thiocyanate (FITC)-conjugatedannexin V (purchased from Brand Applications) and analyzed by flow cytometry. […]

SK-N-AS = assay: Cell viability by crystal violet staining; format: cell-based, human; settings: SK-N-AS neuroblastoma, p53 ?; 24 h
Protocol: (§2) The following human tumor cell lines were assayed: A549 (lung carcinoma, ATCC CCL 185); HCT116 (colon carcinoma, ATCC CCL 247); SW480 (colon adenocarcinoma, ATCC CCL 228); MDA231 (breast adenocarcinoma, ATCC HTB 26); HeLa (cervical carcinoma, ATCC CCL 22); ME-180 (cervical carcinoma, ATCC HTB 33); T24 (bladder carcinoma. ATCC HTB 4); SK-N-AS (neuroblastoma, White et al., Proc. Natl. Acad. Sci., 92:5520-5524 (1995)). The cells were plated at 2.5×10^5 cells/ml in 96 well plates and incubated overnight. The cells were cultured in the presence of 2-fold dilutions of Apo-2 ligand (ranging from 100 ng/ml to 0.01 ng/ml). In some of the cultures, a chemotherapeuticagent was also added for 24 hours-cyclohexamide (“CHX”) (50 μg/ml; Sigma Chemicals), Doxorubicin (10-100 μg/ml; Pharmacia), or 5-FU (6 mg/ml; Roche).
(§3) After 24 hours of incubation, the cells were stained with 0.5% crystal-violetin 20% methanol. Cell viability was determined by eluting the dye from the stained cells with 0.1M sodium citrate (0.1M citric acid in 50% methanol), and measuring absorbance at 540 nm.

HeLa = assay: Cell viability by crystal violet staining; format: cell-based, human
Protocol: as §2, §3

B lymphocytes = assay: Apoptosis by FACS in peripheral blood B cells; format: cell-based, human; settings: Apo-2 ligand 3 μg/ml, 3 days, mean ±SE
Protocol: as §1
The freshly isolated peripheral blood B or T cells (1×10^6 cells/well) were cultured for 3 days in the presence of a media control or Apo-2 ligand (3 μg/ml, prepared as described in Example 3). […] Apoptosis was determined using FACS analysis essentially as described above in Example 4. […] The results are shown in Table 2 below, representing means ±SE of independent experiments [B lymphocytes—9 experiments; T lymphocytes—8 experiments; T lymphocytes plus IL-2-5 experiments], in which 50,000 cells were analyzed per data point. […]

B1: Apo-2L: purified soluble His10-tagged human Apo-2 ligand, residues 114-281, from baculovirus-infected Sf9 cells (Example 3); used in Examples 4-14 (protein)
chain: MGHHHHHHHHHHSSGHIDDDDKHMVRERGPQRVAAHITGTRGRSNTLSSPNSKNEKALGRKINSWESSRSGHSFLSNLHLRNGELVIHEKGFYYIYSQTYFRFQEEIKENTKNDKQMVQYIYKYTSYPDPILLMKSARNSCWSKDAEYGLYSIYQGGIFELKENDRIFVSVTNEHLIDMDHEASFFGAFLVG
shrinkage of tumors (change in tumor volume) [1]: about 50%
% apoptolic cells (T lymphocytes; IL-2 pretreatment (50 U/ml, 3-5 days), control 13.7 ± 1.2, b=p<0.02): 34.5 ± 4.8^b %
% apoptolic cells (T lymphocytes; PMA/ionomycin, control 40.3 ± 4.4, a=p<0.05): 54.2 ± 3.3^a %
% apoptolic cells (T lymphocytes; treatment none, control 6.3 ± 0.6): 8.2 ± 0.8%
% apoptotic cells (Jurkat cells): 77.0%
Apo-2L SENSITIVITY (SK-N-AS): + (>35% death after 24 h with 100 ng/ml Apo-2)
Apo-2L SENSITIVITY (HeLa; HeLa cervical carcinoma, p53 mut, 24 h): + (>35% death after 24 h with 100 ng/ml Apo-2)
Apo-2L sensitivity ENHANCED BY CHX (HeLa; HeLa, cyclohexamide 50 μg/ml, 24 hours): yes
% apoptolic cells (B lymphocytes; LPS 1 μg/ml, control 44.8 ± 2.8, a=p<0.05): 55.9 ± 3.2^a %
% apoptolic cells (B lymphocytes; treatment none, control 40.1 ± 4.1, a=p<0.05): 53.2 ± 3.3^a %

— US6740739B1, “Substitutional variants of APO-2 ligand” (Genentech, Inc., priority 1998, dated 2004)
